Laboratory results from publication PMC11053944, “FRET Assays for the Identification of C. albicans HSP90-Sba1 and Human HSP90α-p23 Binding Inhibitors” (Pharmaceuticals, 2024).
Entries after “also recorded” stand apart in the source; their conditions may differ.

B1: Sba1: unlabeled C. albicans HSP90 co-chaperone Sba1 (UniProtKB A0A1D8PQ94), His6-tagged; yeast Sba1 in cited values (protein)
chain: MSSTTTQTPTVLWAQRSSEDDAAKNIIYLTIQISDPIDLKIDLKSDHLIIDSKSNDSVYSSIDYHLQIDFFKEIDPDQSKINTENGSHIFMILRKKDQQEEYWPRLTKEKLKYHYIKTDFDKWVDEDEQDEVKDDPNDFGGPGGPGGAMDFSQMLSGMGGLGGAGGSGGPGGVDLSALASQLGQAGGAGGAAGLDGEEGEEGEAEAKEAQEESNTTATEKE
modifications: left off: His6, N-terminal, state not stated
notes: unlabeled C. albicans HSP90 co-chaperone Sba1 (UniProtKB A0A1D8PQ94), His6-tagged; yeast Sba1 in cited values
B2: Aha1: C. albicans co-chaperone Aha1, activator of HSP90 ATPase (A0A1D8PU72); yeast Aha1 in cited values (protein)
chain: MVVNNPNNWHWVDKNCLPWSVDYFKDKLINLKVTDGTNNVHISEVSSVEGDVDVSQRKGKVISLFDIKIVLTFKGNTAKDDNVSGSITIPELTYDSEVDGLQFDISIYNETAENSGITDLIKKQLIPQLRTALMKFGPDLIEINSKDIQLSQDKVTSTYTKANQSSTIAATADHPKSESKPVEKKTETHSTSNIARKVVSEKDSSTVPKYNTTTLHLEPSFNTSAEQIYLTLLDEARIGAWTRSAPVIEKFPPKEGSEFKFFGGSVSGKFLKLVPNEQIVELWRLDDWKAGHFAQLDMKLVQSSGETKLVVKFSGIPIGEEERVKNNFEERYIRSIKITFGFGAVL
modifications: left off: His6, N-terminal, state not stated
notes: yeast Aha1 in cited values

Key:
[1] = target: T1, C. albicans HSP90-mNeonGreen–Sba1-mScarlet-I binding (Candida albicans, UniProt P46598, E36A); conditions: 20 µM added; 1 µM HSP90-mNeonGreen, 2 µM Sba1-mScarlet-I, 5 mM ATP
T1 construct: made in house; host or cells: E. coli BL21(DE3)
Method: In this investigation, 1 µM HSP90-mNeonGreen was incubated with 2 µM Sba1-mScarlet-I in reaction buffer containing 5 mM ATP either alone (UC) or with the addition of 20 µM Sba1. As a negative control, samples containing 20 µM bovine serum albumin (BSA) were used.
FRET experiments were carried out in 384-well microtiter plates (Art. No. 3766 Corning, NY, USA, or Art. No. 781906, Greiner Bio-One GmbH, Frickenhausen, Germany) containing a final volume of 20 µL and measured with a microplate reader Infinite M200Pro (Tecan, Männedorf, Switzerland). The fluorescence was measured in three channels: excitation (ex.): 488 nm/emission (em.): 525 nm (mNeonGreen fluorescence), ex.: 561 nm/em.: 610 nm (mScarlet-I fluorescence) and the FRET channel ex.: 488 nm/em.: 610 nm. The excitation and emission bandwidths were set to 9 and 20 nm, respectively. Experiments for the determination of the equilibrium dissociation constants were performed with a filter-based microplate reader Infinite F200Pro (Tecan, Männedorf, Switzerland). The fluorescence was measured in three channels using the following filters: ex.: 485 ± 20 nm/em.: 535 ± 20 nm (mNeonGreen channel), ex.: 535 ± 20 nm/em.: 612 ± 10 nm (mScarlet-I channel) and the FRET channel ex.: 485 ± 20 nm/em.: 612 ± 10 nm. […]

[2] = target: T2, C. albicans HSP90–Sba1 binding (Candida albicans, UniProt P46598); assay: FRET inhibitor screening assay, C. albicans HSP90-Sba1 binding; conditions: 10 or 100 µM (Sba1 20 µM), triplicates, 3 mM ATP, 1% DMSO, 15 min 30 °C
T2 construct: made in house; host or cells: E. coli BL21(DE3)
Excerpt: We used the Z′ factor (Z′) to optimize the FRET assays for screening purposes. Z′ represents a simple statistical parameter for the quality assessment and optimization of HTS assays and screening assays in general. It is a measure that determines the degree of signal separation between binding and non-binding data sets. Calculation of the Z′ factor is based on the standard deviation of the individual data sets as well as their general signal separation. Values ≥ 0.5 can be classified as excellent for screening purposes. […] Consequently, the fluorescence intensity of the donor decreases (FLDD). […] To obtain an informative Z′ value, we calculated it based on at least three independent experiments amounting to 144 samples for both binding and non-binding control data sets (Figure 4B,E). […] We defined the ‘hit threshold’ as a decrease in readout signal of more than 3 standard deviations (SDs) from the mean signal of the binding control. […]
FRET experiments were carried out in 384-well microtiter plates (Art. No. 3766 Corning, NY, USA, or Art. No. 781906, Greiner Bio-One GmbH, Frickenhausen, Germany) containing a final volume of 20 µL and measured with a microplate reader Infinite M200Pro (Tecan, Männedorf, Switzerland). […] Experiments for the determination of the equilibrium dissociation constants were performed with a filter-based microplate reader Infinite F200Pro (Tecan, Männedorf, Switzerland). […]

S. cerevisiae HSP90 = conditions: cited from earlier work
C. albicans HSP90 = target: T3, C. albicans HSP90 (Candida albicans, UniProt P46598); assay: ADP-Glo assay, HSP90 ATPase activity; type: biochemical; conditions: HSP90 2.5 µM, 1 mM ATP, 1 h 30 °C; Aha1 alone: up to, at 8-fold molar excess; co-incubation: 20 µM each
T3 construct: made in house; host or cells: E. coli BL21(DE3)
T3 sequence (P46598 whole entry): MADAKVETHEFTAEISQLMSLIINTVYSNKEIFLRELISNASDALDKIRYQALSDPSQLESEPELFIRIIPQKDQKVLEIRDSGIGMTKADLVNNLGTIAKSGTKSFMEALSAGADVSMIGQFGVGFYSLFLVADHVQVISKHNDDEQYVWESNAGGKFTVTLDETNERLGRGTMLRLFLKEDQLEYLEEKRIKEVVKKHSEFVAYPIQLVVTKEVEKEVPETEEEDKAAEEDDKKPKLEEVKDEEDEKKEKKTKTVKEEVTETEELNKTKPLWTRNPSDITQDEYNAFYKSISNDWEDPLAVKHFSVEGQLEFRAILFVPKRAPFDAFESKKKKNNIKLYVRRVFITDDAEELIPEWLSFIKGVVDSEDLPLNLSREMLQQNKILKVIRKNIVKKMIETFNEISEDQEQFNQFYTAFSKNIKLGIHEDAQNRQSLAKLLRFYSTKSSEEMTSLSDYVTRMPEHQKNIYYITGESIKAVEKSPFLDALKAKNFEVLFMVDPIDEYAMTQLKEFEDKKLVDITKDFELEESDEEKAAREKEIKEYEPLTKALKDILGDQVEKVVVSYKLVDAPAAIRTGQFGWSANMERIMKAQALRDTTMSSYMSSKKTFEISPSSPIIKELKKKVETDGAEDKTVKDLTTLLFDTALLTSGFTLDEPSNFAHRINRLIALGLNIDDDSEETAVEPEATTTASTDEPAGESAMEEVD
Method: The ADP-Glo™ assay (Promega GmbH, Waldorf, Germany) was performed according to the manufacturer’s protocol. […] The reaction mixture was incubated for 1 h at 30 °C. After 5 min re-tempering to room temperature, 5 µL of ADP-Glo reagent was added to the samples to terminate the kinase reaction and deplete the remaining ATP for 40 min at room temperature. Afterward, 10 µL Kinase Detection Reagent was added to convert the generated ADP back to ATP. In that way, synthesized ATP was measured in a luciferase/luciferin reaction. Luminescence was detected with an Infinite M200 Pro (Tecan, Männedorf, Switzerland) in a 384-well microtiter plate (Art. No. 781075, Greiner Bio-One GmbH, Frickenhausen, Germany) after 40 min for 100 µM ATP samples, or 60 min for 1 mM ATP samples. The luminescence intensity of the sample containing only HSP90 was set to 100%, and the luminescence intensities of the other samples were related to it.

T1 sequence (P46598 whole entry, stated change not applied): as the sequence (P46598 whole entry) above
T2 sequence (P46598 whole entry): as the sequence (P46598 whole entry) above

Row | Molecule | effect on FRET emission (EmFRET) versus untreated control [1] | hit identification (EmFRET/FLDD decrease of more than 3 SDs from binding control mean) [2] | ATPase activity, % of initial value in the absence of Sba1 (S. cerevisiae HSP90; decrease to up) | increase in HSP90 ATPase activity (C. albicans HSP90) | stimulation in ATPase activity (S. cerevisiae HSP90; up to, 5–10-fold molar excess Aha1/HSP90, ref 32 (Wolmarans et al.))
1 | B1 | significant reduction in FRET emission | identified as disrupting; also recorded: identified as hits | 50% |  | 
2 | B2 |  |  |  | 7 fold | ~ 20 fold
